Data from patent publication US20240068024, “NUCLEIC ACID FRAGMENT AND USE THEREOF” (KYUSHU UNIVERSITY, NATIONAL UNIVERSITY CORPORATION, published 2024).

Columns and labels:
[1] = target: Tn5 transposase (UniProt Q46731 Q46731:1-476); experiment: in situ transposition, 5 mM MgCl2, TAPS-DMF pH 8.5, 37 C; library band 200-400 bp; conditions: chain copies: 2 (stated, dimer)
Method: PBS was removed, 100 μL of a Tn5 solution (150 ng/well in 1×Tn5 dialysis buffer) was added thereto, and the mixture was allowed to stand at room temperature for 1 hour. The composition of the 1×Tn5 dialysis buffer was formed of 50 mM HEPES-KOH (pH 7.2), 0.1 M NaCl, 0.1 mM EDTA, 1 mM DTT, 0.1% Triton X-100, and 10% glycerol. As a result, the transposase was bound to the transposase binding sequence of the double-stranded nucleic acid fragment of each ChIL probe.
Subsequently, the 1×Tn5 dialysis buffer was removed, […] of a 1×TAPS-DMF buffer (10 mM TAPS-NaOH (pH 8.5), 5 mM MgCl₂, 10% N,N-dimethylformamide) was added thereto, and the mixture was allowed to stand at 37° C. for 1 hour. With this, the transposase bound to the double-stranded nucleic acid fragment of the ChIL probe was activated, and the double-stranded nucleic acid fragment of the ChIL probe was inserted in the vicinity of the binding region of the lysine 27 acetylation modified histone H3 on the genomic DNA.

[2] = target: T7 RNA polymerase (UniProt P00573 P00573:1-883); experiment: in situ transcription after Tn5 insertion in mouse liver section, library band 200-400 bp; 37 C overnight; no UV needed
Sequence of T7 RNA polymerase (P00573 whole entry, one chain of several): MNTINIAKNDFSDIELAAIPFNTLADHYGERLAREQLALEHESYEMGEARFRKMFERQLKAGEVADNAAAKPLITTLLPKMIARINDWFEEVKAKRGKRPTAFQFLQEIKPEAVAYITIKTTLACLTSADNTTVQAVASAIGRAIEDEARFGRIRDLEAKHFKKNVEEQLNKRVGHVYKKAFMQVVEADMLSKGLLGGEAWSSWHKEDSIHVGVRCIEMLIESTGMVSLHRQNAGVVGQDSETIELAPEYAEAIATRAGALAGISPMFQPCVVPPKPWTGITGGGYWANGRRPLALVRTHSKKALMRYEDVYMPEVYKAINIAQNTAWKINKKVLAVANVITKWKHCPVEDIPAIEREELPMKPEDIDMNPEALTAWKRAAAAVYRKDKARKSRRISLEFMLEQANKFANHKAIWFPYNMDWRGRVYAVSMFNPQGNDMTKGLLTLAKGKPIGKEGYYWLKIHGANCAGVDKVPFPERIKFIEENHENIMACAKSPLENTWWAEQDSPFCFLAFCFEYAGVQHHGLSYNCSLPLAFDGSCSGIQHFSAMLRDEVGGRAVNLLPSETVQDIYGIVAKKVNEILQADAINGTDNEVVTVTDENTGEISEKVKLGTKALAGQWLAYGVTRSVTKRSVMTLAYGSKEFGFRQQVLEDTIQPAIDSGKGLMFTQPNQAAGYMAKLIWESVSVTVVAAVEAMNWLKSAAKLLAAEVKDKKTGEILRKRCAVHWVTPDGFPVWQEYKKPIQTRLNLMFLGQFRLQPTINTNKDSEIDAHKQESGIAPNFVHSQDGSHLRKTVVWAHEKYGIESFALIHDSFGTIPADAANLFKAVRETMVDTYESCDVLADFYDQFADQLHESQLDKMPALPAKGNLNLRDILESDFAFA

Sequence of Tn5 transposase (Q46731 whole entry, the tested form may be a part, one chain of several): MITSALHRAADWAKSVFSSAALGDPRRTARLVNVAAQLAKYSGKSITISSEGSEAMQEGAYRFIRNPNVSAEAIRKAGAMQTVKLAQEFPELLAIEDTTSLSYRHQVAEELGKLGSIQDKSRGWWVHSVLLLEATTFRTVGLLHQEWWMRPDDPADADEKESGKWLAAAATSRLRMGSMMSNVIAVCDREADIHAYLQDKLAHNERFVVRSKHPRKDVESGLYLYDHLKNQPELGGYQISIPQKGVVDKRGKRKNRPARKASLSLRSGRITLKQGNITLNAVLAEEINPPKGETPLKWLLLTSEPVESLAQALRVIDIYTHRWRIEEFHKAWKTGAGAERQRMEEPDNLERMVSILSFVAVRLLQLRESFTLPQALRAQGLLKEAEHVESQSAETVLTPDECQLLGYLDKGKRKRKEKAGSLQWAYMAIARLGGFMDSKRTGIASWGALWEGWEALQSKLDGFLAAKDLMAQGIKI

B1: control ChIL probe (original) (dsDNA)
DNA 1: CCCATGCATTAATACGACTCACTATAGGGTAGATCGCTCGTCGGCAGCGTCAGATGTGTATAAGAGACAG
DNA 2: CTGTCTCTTATACACATCTGACGCTGCCGACGAGCGATCTACCCTATAGTGAGTCGTATTAATGCATGGG
modifications: 5'-azide on SEQ 1 (click-linked to DBCO-PEG5 anti-mouse IgG); 5'-phosphate on SEQ 2
- binding result [1]: binds
- binding result [2]: binds
